Reference: the nanobody polyreactivity screen of Harvey et al. (2022)

Assay: yeast display, Sf9 membrane polyspecificity reagent, FACS + sequencing; frameworks hold sequencing errors
In short: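 Galactose-induced (36–48 hours) yeast carrying a synthetic nanobody display library were exposed to 10% biotinylated, detergent-solubilized Sf9 membrane reagent at 4 °C for 1 hour. FACS followed streptavidin microbead enrichment, using low and high (top ~1%) gates for expression (anti-HA) and reagent binding (streptavidin). Colony PCR, MiSeq 2 × 250 sequencing and CDR-length filtering followed. Labels for polyreactivity reflect the gate of origin.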

| Sequence | polyreactivity (PSR sort gate) |
| --- | --- |
| QLHLVESGGGLVQAGGSLRLSCAASGLTFDQYAMGWYRQAPGKERELVAAISGSDSTYYADSVKGRFTISRDNAKNTVYLQMNSLKPEDTAVYYCAASGDYVNIITGERFDARLYDYWGQGTQVTVSS | low polyreactivity |
| QLHLVESGGGLVQAGGSLRLSCAASVSIFNIYAMGWYRQAPGKERELVATITGIADSTYYADSVKGRFTISRDNAKNTVYLQMNSLKPEDTAVYYCAADKYVAEYDYWGQGTQVTVSS | low polyreactivity |
| QLKLVESGGGLVQAGASLRLSCAASGSIFYGYTMGWYRQAPGKERELVAGISTYYADSVKGRFTISRDNAKNTVYLQMNSLKPEDTEVYYCAADYSSTTSEYDYWGQGTQVTVSS | low polyreactivity |
| QLQHVESGGCLDQAGGSLRLSCAASGGIIPYRGWYRQAPGKQRELVASITSSGGSTYYADSVKGRFTISRDNAKNTVYLQMNSLKPEDTAVFYCAADPDFYKSVQYDYWGQGTQVTVSS | low polyreactivity |
| QLQHVESGGGLVQAGGRLRLSCAASGFTFYYYAMGWYRPEPGKERELVAAISSTGGSTYYADSVKGRFTISRDNAKNTVYLQMNSMKPEDTAVYYCNAACYRYPGDYDYWGQGTQVTVSS | high polyreactivity |
| QLQIVESGGGLVQAGGSLRLSCAASGRIFSYNAMGWYIQAPGKARELVAAITFSGGGTYYADSVKGRFTISRDNAKNTVYLQMNSLNPEYTAVYYCNKVSYGYSTYGYWGQCTQVTVSS | low polyreactivity |
| QLQIVESGGGLVQAGGSLRLSCAASGSTFSYNAMGWYRQAPRKQRELVASISTSGGSTYYADSVKGRFTISRDNANNTVYLEMNSLKPEDTAVYYCNAPTSDIYSDFDSWGQGTQVTVSS | low polyreactivity |
| QLQLAESGGGLVQAGGSLRLSCAASGSTFEINAMGWYRQAPWKERELVAAISKRGGNTYYADSVKGRFTISRDNAKNTVYLQMNSLKPEVTAVYYCSADSDSHYFFYVRWVGERYEYWGQGTQVTVSS | high polyreactivity |
| QLQLEESAGGLVQAGGSLRLSCAASGSIFSDNAMGWYRQAPGKERELVASINSGGSTNYADSVKGRFTISRDNAKNTVYLQMNSLKPEYTAVYYFNKEDEVVYPGYPNGGMDYWGQGTQVTVSS | low polyreactivity |
| QLQLEESGGGLVQAGGSLRLSCAASGRTFRYYSMGWYRHAPGKEREMVAAISSSGDRTYYADSVKGRFTISRDNATNTVYIQMNSLKPEDTAVYYCANVPYYSRPHDYWGQGTQVTVSS | high polyreactivity |
| QLQLEESGGGLVQAGGSLRLSCAASGSIFDDYAMGWYRQAPGKERELVAAITSGGSTYYADSVKGRFTISRDNAKNTVYLQLNRLKPEDTAVYYRATRYHWSSSFAPVGAYGYWGQGTQVTVSS | low polyreactivity |
| QLQLEESGGGLVQAGGSLRLSCAASGSTFSRNAMGWYRQAPGNERELVAAITIRGGSTSYADSVKGRFTISRENAKNTVYLQMNSLKPEDTAVYYCYRQSRNAGGYYWGQGTQVTVSS | low polyreactivity |
| QLQLEESLVGLVQAGGSHPLSCAATGITFFTYTIGWYRQAPGKERELVARIRWDGGSTYYADSVKGRFTISRDNAKNTVYLQMNSLKPEDTAVYYCAADYPYSTYDYWGQGTQVTVSS | low polyreactivity |
| QLQLQESGGGLVQAVVDLRQSCAESVNIFRDYIMGCYRQAPGKELEFVAGIDRGANTNFADSEKGRFTISRDNAKNTVYLQMNSLKPEDTAVYYCAVHTAIVPEFIYWGLGTQVTVSS | low polyreactivity |
| QLQLQESGSGLEQAGGSLRLSCASSGYISLGDNMGWYRQAPGKEREFVATISVGGITYYVDSVKGRFTISRDIAKNTVYLQRNSLNPEDTAVYYCADLDIYYFRYYYWGQGTQVTVSS | low polyreactivity |
| QLQLVESGAGLVKAGGSLRISSAASGYTFGRNTMGCYRQAPGKERELVAAITRRGGSTNYADSVKGRFTISRDNAKNTVYLQMNSLKQEDTAVYYCARDYRSYTGSYDSSYDYWGQGTQVTVSS | high polyreactivity |
| QLQLVESGGGLDQAGGSLRLRCASSARIFSGYAIGWYIKAPGKERELVAAITSRSGSTYYADSVKGRFTISRDNAKNSVYFQMNSLKPEDTAVYYCAAEYVRFYWYTSDYWGQGTQVTVSS | low polyreactivity |
| QLQLVESGGGLGQAGGSLRLSCAASGSIFDHYAMGWYRQAPGKERELVASMSKCGGSTYYADSVKGRFTISRDNAKNTVYLQMNSLKPEDTAVYYCASKQYYRGHNYWGQGTQVTVSS | high polyreactivity |
| QLQLVESGGGLVKAGGSLRLSCADSGLIFRNNCMGGYRHAPRKERELVAAISNRGGSTYYADSVKGRFTISRDNAKNTVYLQMNSLKPEDTAVYDCNAVASYSQGGYRYDYWGQGTQVTVSS | high polyreactivity |
| QLQLVESGGGLVQAGASLRLSCADSRRIFDYNVMGRYIQAPGKEREVVADINGSGGGTNYEDSVKGRFTISRDNAKNTVYLQMNILKPEDTAVYYCNADSYEYHVPYYDYRYDYWGQGTQVTVSS | low polyreactivity |
| QLQLVESGGGLVQAGGRLRLSCAASGGIFQTNAMGWYRQAPGKERELVAAISRSAGRTYYADSVKGRFTISRDNAKNTVYLQMTSLKPEDTAVYYCNALRGRFRFDYWGQGTQVTVSS | high polyreactivity |

| Sequence | polyreactivity (PSR sort gate) |
| --- | --- |
| QLQLVESGGGLVQAGGSHRLSCAASGSIFTGYAMGRSRQAPGKQREFVAAISWSGSSTYYADSVKGRFTISRDNGKNTVYVQMNSLKPEDTAVYYCNAVKGWWGYYSSVDFDYWGQGTQVTVSS | low polyreactivity |
| QLQLVESGGGLVQAGGSLRITCAASGSTFYCYSMACYRQAPGKERALVARISSSSGRTYYADSVKGRFTISRDNAKNTVYLQMNLLKPEDTAVYYCAKYVYGKFDGVRYSYDYWGQGTQVTVSS | low polyreactivity |
| QLQLVESGGGLVQAGGSLRLSCAASGFIFGLYDMGWYREATGKERELVAAISWSGGSTYYADSVKGRFTISRDNAKNTVYLQMNSLKPADTAVYYCNKDLYADGQYNYDYWGLGTQVTVSS | low polyreactivity |
| QLQLVESGGGLVQAGGSLRLSCAASGFNFPANAMGCYRQAPGKEREFVAAITRRGGSTYYADSVKGRFTISRDYAKNPVYLQMNSLKPEDTAVYYCATYDPARSTQGYDYWGQGTQVTVSS | high polyreactivity |
| QLQLVESGGGLVQAGGSLRLSCAASGFTFSDYARGWYRQAPGKERELVAAINTSGGSTYYADSVKGRFTISRDNAKNTVYLQMNSLKPEDTAVYYCAAKYASLDRRRRKYDYWGQGTQVTVSS | high polyreactivity |
| QLQLVESGGGLVQAGGSLRLSCAASGIIFDGYSRGWYRQAPGKEREFVAAITSGGGSTSYADSVKGRFTISRDYAKNTVYLQMNSLKPEDTAVYYCAARSNRFYVRQRYGYWGQGTQVTVSS | high polyreactivity |
| QLQLVESGGGLVQAGGSLRLSCAASGLTFQYYAMGWYRQAPGKERELVAAISTSGGSTYYADSVKGRFTISRDNAKNTVYLQMNSLKPEDTAVYYCAARGPGYPRIWRKYGYWGQGTQVTVSS | high polyreactivity |
| QLQLVESGGGLVQAGGSLRLSCAASGLTFQYYDMGRYRQAPGKERELVDVIRGSGTSTYYADSVKGRFTISRDNAKNTVYLQMNCLKPEDTAVYYCAAPYQYRRTGRVLGKYDSWGQGTQVTVSS | high polyreactivity |
| QLQLVESGGGLVQAGGSLRLSCAASGLTICRYAMAWYRQAPGKEREFVATISQNGGRTYYADSVKGRFTISRDNAKNTVYLQMNSLKPEDTAVYYCAADDWRWGYDYWGQGTQVTVSS | high polyreactivity |
| QLQLVESGGGLVQAGGSLRLSCAASGRIFEYYAMGWYRQAPGKERELVAAISWSGGSTYYADSVKGRFTISRDNAKNTVYLQMNSLTPEDTAVYYCARDLPYYSISRYDYWGLGTQVTVSS | high polyreactivity |
| QLQLVESGGGLVQAGGSLRLSCAASGRIFQSYALGWYRQAPGKESELVAGIRAGGGRTYYADSVKGRFTISRDNAKNTVYLQMNSLKPEDTAVYYCATDFYPRYLLRTYRPYYYWGQGTQVTVSS | low polyreactivity |
| QLQLVESGGGLVQAGGSLRLSCAASGRIFYVNAMGWYRPAPGKERELVAAISRSGSSTYYADSVKGRFTISRDNAKNTVYLQMNSLKPEDTADYYCAARYYGRSQHHFDYWGQGTQVTVSS | high polyreactivity |
| QLQLVESGGGLVQAGGSLRLSCAASGRIFYYYTMGWYRQAPGKERELVARITGLTGRTYYADSVKGRFTISRDNAKNTVYLQMNSLKPEDTAVYYCNAVLGYYTYDYWGQGTQVTVSS | high polyreactivity |
| QLQLVESGGGLVQAGGSLRLSCAASGRTFQIYAMGWYRQAPVNERELVARITGVGSTNYADSVKGRFTISRDNAKNTVYLQMNSLKPEDTAVYYCNKRDGNWEYDYWGQGTQVTVSS | low polyreactivity |
| QLQLVESGGGLVQAGGSLRLSCAASGRTFSIYAMGWSRQATGKERELVAAIRWSGGSTYYADSVKGRFTISRDNAKNSVYLQMNSLKPEDTAVYYCATRSRGLKFDYWGQGTLVTVSS | high polyreactivity |
| QLQLVESGGGLVQAGGSLRLSCAASGSIFAIYAMGWYRQAPGKERELVAAISDGGGTNYADSVKGRFTISRDNAKNTVYLQMNSLKPEDTAVYYCAADLGWSTYVSNGPKGYDHWGQGTQVTVSS | low polyreactivity |
| QLQLVESGGGLVQAGGSLRLSCAASGSTFHYYDMGWNRKATGKERELVAAISSGGDSTYYADSVKGRFTISRDNAKNTVYLQMNSLKPEDTAVYYCAAAVYYGQSVWYYYWGQGTQVTVSS | high polyreactivity |
| QLQLVESGGGLVQAGGSLRLSCAASGYTFYRYAMGWYRQAPGKERELVAAISSAGTTNYADSVKGRFTISRDNAKKTVYFQMNSLKPEDTAVYYCNKRGRNHNSLKYGYWGQGTQVTVSS | high polyreactivity |
| QLQLVESGGGLVQAGGSLRLSCAATGYISNAMGWYRQPPGKERELVAAISRSGGSTYYADSVKGRFTISRDNAKNTVYLQMNSLKPEDTAVYYCAADYTYHDRRLDYWGQGTQVTVSS | low polyreactivity |
| QLQLVESGGGLVQAGGSLRLSCADSGSTFRYNVMGWYRQAPGNETQLVAAIRDSGDRTYYADSVKGRFTISRDNAKNTVYLQMNSLKPEDTAVYYCNARWQEPLKYDYWGQGTQVTVSS | low polyreactivity |
